This is an account of results in the supplement of paper PMC7877785.

± gives the uncertainty stated by the source.

The nature of this data set: self-splicing fitness, log relative to wild type (ln ratio); higher = more splicing; Tetrahymena group I intron in knt gene, E. coli kanamycin selection, DiMSum; sequences stand for … in CUCUCU…GGAGGGAAAAGUUAUCAGGCAUGCACCUGGUAGCUAGUCUUUAAACCAAUAGAUUGCAUCGGUUUAAAAGGCAAGACCGUCAAAUUGCGGGAAAGGGGUCAACAGCCGUUCAGUACCAAGUCUCAGGGGAAACUUUGAGAUGGCCUUGCAAAGGGUAUGGUAAUAAGCUGACGGACAUGGUCCUAACCACGCAGCCAAGUCCUAAGUCAACAGAUCUUCUGUUGAUAUGGAUGCAGUUCACAGACUAAAUGUCGGUCGGGGAAGAUGUAUUCUUCUCAUAAGAUAUAGUCGGACCUCUCCUUAAUGGGAGCUAGCGGAUGAAGUGAUGCAACACUGGAGCCGCUGGGAACUAAUUUGUAUGCGAAAGUAUAUUGAUUAGUUUUGGAGUACUCGUGGUCG
The method, boiled down:
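A randomised library covering all eight P1ex-region intron nucleotides was built with the intron in the knt kanamycin-resistance gene on pET-22b(+) and held in E. coli BL21(DE3). Cells were grown overnight at 37°C or 30°C on LB agar, with or without 25 μg/mL kanamycin, plus 100 μg/mL carbenicillin, 50 μM IPTG and 0.2% rhamnose, and pooled colonies were amplicon-sequenced on an Illumina HiSeq 2500. DiMSum fitness is the error-weighted combination of wild-type-normalised replicate fold changes, kanamycin versus none.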

On to AGUGAGCAAUAUUACGCUCA, for which, under “37 °C”, the “self-splicing fitness (ln)” value is -2.13 ± 0.25.

Consider AGUGAGCAAUAUUACGGCAA, for which the “self-splicing fitness (ln)” value (30 °C) is -2.12 ± 0.21 and the “self-splicing fitness (ln)” value (37 °C) was -0.889 ± 0.2. Consider AGUGAGCAAUAUUACGGGCG, for which the “self-splicing fitness (ln)” value (30 °C) was -1.04 ± 0.19 and the “self-splicing fitness (ln)” value (37 °C) is -0.922 ± 0.27.

In the case of AGUGAGCAAUAUUACGGUCA, the “self-splicing fitness (ln)” value was -2.16 ± 0.19 (30 °C) and -0.354 ± 0.19 (37 °C).

In the case of AGUGAGCAAUAUUACGUCCA, the “self-splicing fitness (ln)” value (30 °C) was -2.89 ± 0.36 and the “self-splicing fitness (ln)” value (37 °C) is -1 ± 0.27.

As for AGUGAGCAAUAUUACGUCUG, the “self-splicing fitness (ln)” value was -2.84 ± 0.34 (30 °C) and -2.07 ± 0.38 (37 °C).

AGUGAGCAAUAUUACGUUAA: the “self-splicing fitness (ln)” value runs as follows: (30 °C) -2.56 ± 0.31; (37 °C) -1.57 ± 0.25. Consider AGUGAGCAAUAUUACGUUAU, for which the “self-splicing fitness (ln)” value runs as follows: (30 °C) -3.13 ± 0.17; (37 °C) -3.08 ± 0.27. Take AGUGAGCAAUAUUACGUUGU: the “self-splicing fitness (ln)” value is, setting by setting: (30 °C) -4.07 ± 0.19; (37 °C) -1.78 ± 0.14. On the same counts, the results for AGUUAGCAAUAUUACGAAGC are -3.59 ± 0.48 and -1.98 ± 0.48. As for AGUUAGCAAUAUUACGAAGU, the “self-splicing fitness (ln)” value (30 °C) was -2.91 ± 0.17 and the “self-splicing fitness (ln)” value (37 °C) was -1.47 ± 0.15. On to AGUUAGCAAUAUUACGACGA, for which the “self-splicing fitness (ln)” value was -0.101 ± 0.18 (30 °C) and -0.368 ± 0.14 (37 °C). On the same counts, the results for AGUUAGCAAUAUUACGAGCG are -0.12 ± 0.1 and 0.237 ± 0.11.

For the sequence AGUUAGCAAUAUUACGAGCU, the “self-splicing fitness (ln)” value runs as follows: (30 °C) -1.97 ± 0.15; (37 °C) -0.796 ± 0.17. On the same counts, the results for AGUUAGCAAUAUUACGAGGA are -2.32 ± 0.26 and -2.43 ± 0.25.

On to AGUUAGCAAUAUUACGAUAC, for which the “self-splicing fitness (ln)” value by setting is: (30 °C) -2.6 ± 0.25; (37 °C) -1.51 ± 0.24.

In the case of AGUUAGCAAUAUUACGAUAG, the “self-splicing fitness (ln)” value reads like this: (30 °C) -3.19 ± 0.29; (37 °C) -1.77 ± 0.29.

For the sequence AGUUAGCAAUAUUACGAUCA, the “self-splicing fitness (ln)” value was -0.843 ± 0.13 (30 °C) and 0.619 ± 0.12 (37 °C). Take AGUUAGCAAUAUUACGCCCC: the “self-splicing fitness (ln)” value (30 °C) was -0.473 ± 0.23. Consider AGUUAGCAAUAUUACGCCCG, for which the “self-splicing fitness (ln)” value was -1.52 ± 0.44 (30 °C) and 0.364 ± 0.45 (37 °C). On the same counts, the results for AGUUAGCAAUAUUACGCGCA are -0.182 ± 0.14 and 0.341 ± 0.21. The corresponding values for AGUUAGCAAUAUUACGCGGU are -2.58 ± 0.14 and -1.93 ± 0.18. On the same counts, the results for AGUUAGCAAUAUUACGCUAA are -3.11 ± 0.43 and -2.29 ± 0.41. Consider AGUUAGCAAUAUUACGGAAC, for which the “self-splicing fitness (ln)” value (37 °C) was -2.72 ± 0.38.

Take AGUUAGCAAUAUUACGGCAU: the “self-splicing fitness (ln)” value by setting is: (30 °C) -0.297 ± 0.063; (37 °C) -0.161 ± 0.085. For the sequence AGUUAGCAAUAUUACGGCCG, the “self-splicing fitness (ln)” value (30 °C) was -0.855 ± 0.21 and the “self-splicing fitness (ln)” value (37 °C) is -0.628 ± 0.3. On the same counts, the results for AGUUAGCAAUAUUACGGCUG are -0.983 ± 0.085 and -0.309 ± 0.11. On the same counts, the results for AGUUAGCAAUAUUACGGGAU are -3.18 ± 0.26 and -1.46 ± 0.22. On the same counts, the results for AGUUAGCAAUAUUACGGUUG are -3.09 ± 0.24 and -1.99 ± 0.22. On to AGUUAGCAAUAUUACGUACA, for which the “self-splicing fitness (ln)” value reads like this: (30 °C) -1.06 ± 0.09; (37 °C) -0.266 ± 0.12. Consider AGUUAGCAAUAUUACGUAGA, for which the “self-splicing fitness (ln)” value is -3.12 ± 0.14 (30 °C) and -1.59 ± 0.14 (37 °C).

For AGUUAGCAAUAUUACGUAUA, the “self-splicing fitness (ln)” value is -3.01 ± 0.19 (30 °C) and -1.57 ± 0.16 (37 °C).

In the case of AGUUAGCAAUAUUACGUCAC, the “self-splicing fitness (ln)” value (37 °C) is -0.825 ± 0.31. In the case of AGUUAGCAAUAUUACGUCUA, the “self-splicing fitness (ln)” value is, setting by setting: (30 °C) -0.594 ± 0.12; (37 °C) -0.0617 ± 0.1. On to AGUUAGCAAUAUUACGUGAA, for which the “self-splicing fitness (ln)” value is, setting by setting: (30 °C) -2.78 ± 0.15; (37 °C) -2.31 ± 0.2. As to AGUUAGCAAUAUUACGUGAG, the “self-splicing fitness (ln)” value was -1.53 ± 0.12 (30 °C) and -1.86 ± 0.14 (37 °C).

On to AGUUAGCAAUAUUACGUUAA, for which the “self-splicing fitness (ln)” value runs as follows: (30 °C) -3.56 ± 0.38; (37 °C) -1.48 ± 0.26. For AGUUAGCAAUAUUACGUUAG, the “self-splicing fitness (ln)” value is -3.45 ± 0.23 (30 °C) and -2.72 ± 0.3 (37 °C). Consider AGUUAGCAAUAUUACGUUGG, for which the “self-splicing fitness (ln)” value runs as follows: (30 °C) -2.67 ± 0.19; (37 °C) -2.3 ± 0.21.
